Measurements taken from the supplement of paper PMC12764529.
± gives the half width of the 95% confidence interval.

Key:
[1] = folding stability dG unfold from trypsin proteolysis; higher = more stable
Procedure, shortened: (§1)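 Designed mini-proteins (under 80 residues, no cysteine) in a PA-tagged cDNA display construct were digested with trypsin and chymotrypsin. Each protease was used at 11 concentrations (threefold dilutions) plus a no-protease condition, followed by sequencing. K50 was inferred by Bayesian fitting of sequencing counts, and unfolding free energy was derived against a sequence-predicted unfolded-state K50 and a shared folded-state K50, per protease or combined. Only designs with AlphaFold2 dimer inter-PAE above 15 were kept.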

[2] = folding stability dG unfold from chymotrypsin proteolysis; higher = more stable
Procedure, shortened: as §1

[3] = folding stability dG unfold (combined trypsin and chymotrypsin); higher = more stable
Procedure, shortened: as §1

Sequence	folding stability dG unfold [1] [kJ/mol]	folding stability dG unfold [2] [kJ/mol]	folding stability dG unfold [3] [kJ/mol]
SGFTFSTLIAPDESLSITVKEPNSSTTTSFDFTVDPATGAVSATATTTPPDGKTQTFSVTIPVSPGAAALSA [r9_770_JUSTAS]	4.27 ± 0.335	3.87 ± 0.753	4.07 ± 0.46
SAGMVIPILLKPEPERPEEVEKKAIEFANKLKPLNLPNVKIKVYRAPYVDPETGKTTVLYLVLIEVEPPSAG [r5_49_TrMRF]	7.66 ± 0.418	11.7 ± 0.544	10 ± 0.795
SAGGSAGGSAGMLIELTVETSVTTVSTPDATFTVVTLKEPGKPETLGTVVYDPATGSPALSAGGSAGGSAGG [r11_645_JUSTAS]	2.57 ± 0.151	-4.01 ± 1.63	0.705 ± 0.586
SAGGSAGGSAGGNVRLTVTLDENGRLRVTAEVEVTNENGEKKTYRLTLTLKLKPGQTLTSAGGSAGGSAGGS [r10_763_TrROS_Hall]	12.1 ± 0.226	16.16 ± 0.1	14.8 ± 0.544
SAGGSAGGSKEKKTVILRIKIYVKNENGELIEEIEIPLKDLTLEELKELAKKLNVKVEIELLPSAGGSAGGS [r12_398_TrROS_Hall]	7.07 ± 0.669	14.6 ± 0.586	12.7 ± 0.837
SAGGDPETPTTITAPVDPATGTTTWVVNDGSSTSTIPSSLSLEELKKLGLTKAEPLPDGTLRFTILASAGGS [r8_382_JUSTAS]	1.21 ± 0.092	2.07 ± 0.339	2.07 ± 0.222
SFGMIEIENEAFLPDGFRFKVEVWVMVDPDNGNLMIMLDIEIEPIPPPPPPPEPKPVKDKNGDWKPANDMSA [r9_898_TrROS]	7.62 ± 0.586	15.8 ± 0.586	13.1 ± 0.753
SAGGSAGGSAGMTLIYKDPETGKYYIVDFEESGPERVFEVDSLDEAEEIAEKLGRKLDPLSAGGSAGGSAGG [r11_1049_TrMRF]	5.81 ± 0.121	10.84 ± 0.0753	9.66 ± 0.23
SPYTVDSVSEDPSRNSTTVLNFPDGTTVTVTYDPSNPSLATVTVRPADGTTETTTVPLDEPFVVNLTVNPSA [r9_875_JUSTAS]	3.86 ± 0.31	3.93 ± 0.711	4.26 ± 0.879
SAGGSAGGSSMPTMTKVGDTWLYYDPSTDIKRPATVTVDDGKITIDGDSGTTVYDGDLVIETSSAGGSAGGS [r12_683_JUSTAS]	1.63 ± 0.238	-1.31 ± 0.544	0.625 ± 0.418
SAGPWWMITIRLPGNKTITIMFPGVKVEVDPKNNTIRIRNPGLGHSIEFKFDPPGKIKDVDIEPIPPNASAG [r5_342_TrROS]	14.2 ± 0.879	18.8 ± 0.544	16.5 ± 0.753
SAGFLGFGIEPHPNGWFKIEIMVMFPWPGGWFMFSIDITIPIVPIEPPPPPPVVEPKKENGKPKEWKYDSAG [r5_169_TrROS]	7.99 ± 0.544	14.1 ± 1.05	11.5 ± 2.13
SAKMTAEEIAAALAEELGLEVVEVVEVDEETGKITIRVDGKLIEITVVEEDGELKIEVRVVDEETGEELSAG [r14_270_TrROS_Hall]	7.71 ± 0.364	3.57 ± 0.305	5.67 ± 0.753
SKTVEITLTNEDGSTVTITFNEETGKIVIKVPPNVSVEQIKALLRKLLPPGAEVTITRTPNGYYEIEVKPSA [r9_933_TrROS_Hall]	15.4 ± 0.544	18.5 ± 0.544	17.3 ± 0.41
SAGGSAGGSAGGGMSSVSLVKTSTITVGNGTVKLETLSYPDSSFVRTTLPNGKDVVEPLPSAGGSAGGSAGG [r7_655_JUSTAS]	-2.35 ± 0.669	0.439 ± 0.418	-0.373 ± 0.544
SAGGSAMVLVRIKLKHPEREEVIEVPAGELLEILEHPELNEHWEIVEIEAREVPPEFVEPEELEEESAGGSA [r15_460_TrMRF]	3.56 ± 0.364	3.75 ± 0.753	3.72 ± 0.544
SAGMELKVEIVAPKEVLLEKVKELEATIKKAFPKVKVEVEAKIEPLEGDEWKATVVIKIEPLPEDEPAESAG [r5_936_TrMRF]	16.2 ± 1.13	15 ± 0.753	16.4 ± 3.26
SAGGSAGGSEWYEIRIPGIKGSADDLVEDIQDWFPAPNMKISIEEVEPMGDGLPGMTIKLRVNSAGGSAGGS [r12_348_TrROS]	0.951 ± 0.138	1.51 ± 0.46	1.59 ± 0.226
SMTIRVEGVPPGVTAEELAARLRAELEAAGYEVTSIKVTRRADGSLVVEIEVKPAPPPEPVEVVEEREEESA [r9_953_TrROS_Hall]	14.2 ± 0.544	15.7 ± 0.669	15.1 ± 0.711
SAGGSAGGSAMKVGEEVEVTVRIKVDGKEYEVKAKATLDEDGNVTLEVEIKAKEGKVEIEIESAGGSAGGSA [r18_428_TrROS_Hall]	14.3 ± 1.09	9 ± 0.586	11 ± 0.544
SAGGSASIEIPVGDKPVRIEILSLEPEGERVRARAVVYFPDDPEYREISGDLTLEELIDAILEAIGSAGGSA [r15_944_TrMRF]	5.44 ± 0.0669	4.804 ± 0.046	5.06 ± 0.31

Sequence	folding stability dG unfold [1] [kJ/mol]	folding stability dG unfold [2] [kJ/mol]	folding stability dG unfold [3] [kJ/mol]
SAGGSAGGSAGGSIVVETKKNPGPERVVTVKLPDGTPLADVPVSPDEDPEEAVKRALELGSAGGSAGGSAGG [r7_444_JUSTAS]	0.38 ± 0.297	1.27 ± 0.155	1.61 ± 0.711
SAGGSAGGSAKPKVKIEVEERRVLTLDPETGELKEERVLVVRIEVEPGMSEEEAKKLLEELASAGGSAGGSA [r18_438_TrROS_Hall]	7.1 ± 0.331	11.1 ± 0.502	9.51 ± 0.669
SAGGSAGGSLLEDIKKALEIIKPPPIPVKVKVKIEYDPEKGELKVEVEFFGIKLKVEGEFKIESAGGSAGGS [r20_230_TrMRF]	8.66 ± 0.92	14.2 ± 0.669	12.7 ± 1.09
SAGGATLTEPETTVEVRFEKLPDGTVIRTTTTITPEGVTTTTEPVPVPPSPGASSEEELEALRAAAAAASAG [r5_272_JUSTAS]	7.32 ± 0.155	6.31 ± 0.155	6.71 ± 0.753
SAGGSAGGSAGMETIRLTFTVPGPDDRYYRVSVEARINPPTGEIEILRVEITPLDNPDAISAGGSAGGSAGG [r11_777_TrMRF]	12.9 ± 0.502	16.45 ± 0.146	15.4 ± 0.218
SAEVRPDEVLRIEVRLRVGDVEFTAEAEIPAGLSEEEIREAVERIREEAERLAERLRRLPPLRPPEELLSAG [r14_70_TrMRF]	6.84 ± 0.36	12.4 ± 0.586	11 ± 1.8
VDPDDPEYQRFVYFVQELAKTIVEEHQEEGPTVDELYITVDPNNVKIEPVDMPPDEWEEHQKEGRPVIPIRS [r1_134_TrROS]	0.751 ± 0.586	0.782 ± 1.38	-0.254 ± 1.17
SAGGSAGGSMTETVEKAPDGTPVLVLKETEESTGDGGKTILRPSTVLLPPGTVLSTEDEVILESAGGSAGGS [r12_581_JUSTAS]	3.95 ± 0.289	7.66 ± 0.297	6.37 ± 0.301
SAGGNRKFTLIIRIKAPPGDPDKMKEEVKEIANEIADIFRDHGVKVKVKVEYDPDNGEIYVQVEFEVPSAGG [r13_755_TrROS]	16.3 ± 1.21	21.4 ± 1.3	20 ± 1.21
SAGGSAMEKLKEIPGIERIEVKEDGKIIIHVKMSEEERKKLAEALRKEGKVKIEVVPVEVEEEEEESAGGSA [r15_554_TrROS_Hall]	11.8 ± 0.502	8.51 ± 0.301	9.61 ± 0.46
SAGSSTTETFTHPDGSVVTVTEEELPDGSYRVTSVSYEATPDGTVSALLRKPDGTIITVDSLEELFALESAG [r5_618_JUSTAS]	4.04 ± 0.105	6.31 ± 0.318	5.61 ± 0.347
SAGGSAGGSAGAEIKIKKVEKKDSKLKLILPDGRIYEVKKDKKKSNSIKKIKIKKLPPLKSAGGSAGGSAGG [r17_173_JUSTAS]	0.473 ± 1.42	-0.759 ± 2.47	-0.23 ± 1.97
SAGGSAMKLTFTDSKGRTIEITVEKKYLPNGEPYLIITIKYPDTDEEIVITMPTSNIDEILEKLLNSAGGSA [r15_92_JUSTAS]	17 ± 1.34	17.9 ± 0.46	17.9 ± 1
SASASQTTIEYTVPVPAGTSPDEPLTLTVTLPDKEIPIEVGTLENLPPDATVTITLDTTEPTFTVTLTPSAG [r14_554_JUSTAS]	6.37 ± 0.213	-1.89 ± 0.962	3.34 ± 0.402
SAGGSMTIKINGAEITDIEVRDDGTIRIKVRVTNENGEEVEVTLEIRIEPAPPVEVVHPDDPEALESAGGSA [r2_368_TrROS_Hall]	12.9 ± 0.669	10.2 ± 0.276	11.4 ± 0.406
SAGGKEKKKEKEEKKKKPKPKFIKIKLSPEELLKLAKELPNIDRIFVEVDGKLYEFDAKTGKIVEVDSAGGS [r16_214_TrROS_Hall]	5.36 ± 0.418	10 ± 0.335	8.25 ± 0.753
SAGGIWIPIDRIREALKDGMPLDEIVDKLRKHGFPIDRITGIEPSPNSWTIEIEFPEQGMPIEIQISSAGGS [r8_179_TrROS]	8.1 ± 0.218	6.93 ± 0.146	7.96 ± 0.356
SKPNLEVKEVEIKMTAEEIKKLLKPNVTKIEKVNGKYYVTVKVNGVLVKIEIKYDKETNEVTVKIYVIKPSA [r9_604_TrROS_Hall]	9.92 ± 0.301	13.03 ± 0.126	12.1 ± 0.46
SAGPIKELLEFLKANPDAVVEFEFTLPNGAKVKIKAKKFPDAVVLEVTTIDPNNKKPITGTITIPLPESAGG [r19_143_TrMRF]	17.4 ± 0.544	14.6 ± 0.301	15.9 ± 0.544
SSKIKEFIIKLPEKNKYYKIIVTPTEIYIYDENGKKIKKFSIPKNKKIKKIDIKIDKKKNKLIIKVYLEKSA [r9_939_TrMRF]	17.3 ± 0.962	19 ± 0.41	18.5 ± 0.879
SGLPEELARKLGLSAMTPLPDGTLVMALPDGTRVVVRIETTEVRLSPLGEPAVEVEVEVERLPAPAPEAASA [r9_648_JUSTAS]	6.26 ± 0.113	6.98 ± 0.0753	6.7 ± 0.201
